From article doi:10.1101/2025.09.18.677151 come the findings set out here.

This experiment deals with T1, E. coli TatC (subunit of the overexpressed TatBC complex) (E. coli), P69423.
T1 chain: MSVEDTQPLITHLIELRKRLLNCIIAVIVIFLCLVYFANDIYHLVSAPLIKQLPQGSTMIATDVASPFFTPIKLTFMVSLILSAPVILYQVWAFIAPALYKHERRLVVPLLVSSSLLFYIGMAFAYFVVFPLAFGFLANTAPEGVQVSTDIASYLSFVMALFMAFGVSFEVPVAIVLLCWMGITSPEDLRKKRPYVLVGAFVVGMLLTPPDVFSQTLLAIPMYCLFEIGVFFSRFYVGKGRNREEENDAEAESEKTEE
In words: cryo-EM structure. Conditions: remark: other sources report otherwise.

B1: E. coli TatC (subunit of the overexpressed TatBC complex), P69423 1-258 (natural protein)
chain: T1 chain
The stoichiometry N is the number of molecules, sites or subunits per partner or assembly. As for B1, the stoichiometry N worked out at 3.
